Reference: the supplement of paper PMC10567573

B1: GFOD1 (parent)
chain: SDDFCTFQMVLEGGVCCTVTLNFN

Variants of: B1
Assay: protein stability index of a GFP-peptide fusion (GPS, HEK-293T) (PSI 1-6); higher = more stable
Conditions: c terminus: a fixed tail appended
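Further: lentivirally expressed fusions sorted by FACS into six bins by GFP to DsRed ratio, PSI derived from sequencing read proportions per bin multiplied by bin number.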

| Variant | protein stability index |
| --- | --- |
| SDDFCTFQMVLMGGVCCTVTLNFN | 3.38 |
| SDDFCTFQMVLVGGVCCTVTLNFN | 3.03 |
| SDDFCTFQMVLIGGVCCTVTLNFN | 2.56 |
| SDDFCTFQMVLQGGVCCTVTLNFN | 2.74 |
| SDDFCTFQMVLWGGVCCTVTLNFN | 2.6 |
| SDDFCTFQMVLHGGVCCTVTLNFN | 2.37 |
| SDDFCTFQMVLLGGVCCTVTLNFN | 4.46 |
| SDDFCTFQMVLTGGVCCTVTLNFN | 1.99 |
| SDDFCTFQMVLFGGVCCTVTLNFN | 2.27 |
| SDDFCTFQMVLNGGVCCTVTLNFN | 3.79 |
| SDDFCTFQMVLGGGVCCTVTLNFN | 3.33 |
| SDDFCTFQMVLCGGVCCTVTLNFN | 2.46 |
| SDDFCTFQMVLSGGVCCTVTLNFN | 3.99 |
| SDDFCTFQMVLAGGVCCTVTLNFN | 3.59 |
| SDDFCTFQMVLEGGVNCTVTLNFN | 2.89 |
| SDDFCTFQMVLEGGVKCTVTLNFN | 2.95 |
| SDDFCTFQMVLEGGVWCTVTLNFN | 2.8 |
| SDDFCTFQMVLEGGVPCTVTLNFN | 2.65 |
| SDDFCTFQMVLEGGVDCTVTLNFN | 2.56 |
| SDDFCTFQMVLEGGVECTVTLNFN | 2.24 |
| SDDFCTFQMVLEGGVTCTVTLNFN | 3.75 |
| SDDFCTFQMVLEGGVHCTVTLNFN | 3.09 |
| SDDFCTFQMVLEGGVVCTVTLNFN | 2.46 |
| SDDFCTFQMVLEGGVYCTVTLNFN | 2.76 |

| Variant | protein stability index |
| --- | --- |
| SDDFCTFQMVLEGGVFCTVTLNFN | 1.78 |
| SDDFCTFQMVLEGGVSCTVTLNFN | 3.6 |
| SDDFCTFQMVLEGGVICTVTLNFN | 3.88 |
| SDDFCTFQMVLEGGVQCTVTLNFN | 2.45 |
| SDDFCTFQMVLEGGVGCTVTLNFN | 3.63 |
| SDDFCTFQMVLEGGVACTVTLNFN | 4.12 |
| SDDFCTFQMVLEGGVCCTVHLNFN | 2.03 |
| SDDFCTFQMVLEGGVCCTVMLNFN | 2.71 |
| SDDFCTFQMVLEGGVCCTVWLNFN | 2.71 |
| SDDFCTFQMVLEGGVCCTVNLNFN | 3.6 |
| SDDFCTFQMVLEGGVCCTVQLNFN | 3.57 |
| SDDFCTFQMVLEGGVCCTVFLNFN | 3.21 |
| SDDFCTFQMVLEGGVCCTVLLNFN | 1.03 |
| SDDFCTFQMVLEGGVCCTVCLNFN | 1.75 |
| SDDFCTFQMVLEGGVCCTVYLNFN | 1.97 |
| SDDFCTFQMVLEGGVCCTVPLNFN | 1.49 |
| SDDFCTFQMVLEGGKCCTVTLNFN | 2.27 |
| SDDFCTFQMVLEGGYCCTVTLNFN | 4.1 |
| SDDFCTFQMVLEGGLCCTVTLNFN | 4.13 |
| SDDFCTFQMVLEGGICCTVTLNFN | 1.72 |
| SDDFCTFQMVLEGGFCCTVTLNFN | 3.41 |
| SDDFCTFQMVLEGGCCCTVTLNFN | 2.55 |
| SDDFCTFQMVLEGGMCCTVTLNFN | 3.15 |
| SDDFCTFQMVLEGGHCCTVTLNFN | 4.25 |

| Variant | protein stability index |
| --- | --- |
| SDDFCTFQMVLEGGDCCTVTLNFN | 2.58 |
| SDDFCTFQMVLEGGPCCTVTLNFN | 2.97 |
| SDDFCTFQMVLEGGQCCTVTLNFN | 2.94 |
| SDDFCTFQMVLEGGRCCTVTLNFN | 3.84 |
| SDDFCTFQMVLEGGECCTVTLNFN | 2.33 |
| SDDFCTFQMVAEGGVCCTVTLNFN | 1.26 |
| SDDFCTFQMVKEGGVCCTVTLNFN | 2.9 |
| SDDFCTFQMVDEGGVCCTVTLNFN | 3.52 |
| SDDFCTFQMVIEGGVCCTVTLNFN | 2.51 |
| SDDFCTFQMVPEGGVCCTVTLNFN | 3.4 |
| SDDFCTFQMVREGGVCCTVTLNFN | 3.43 |
| SDDFCTFQMVFEGGVCCTVTLNFN | 3.38 |
| SDDFCTFQMVHEGGVCCTVTLNFN | 3.05 |
| SDDFCTFQMVYEGGVCCTVTLNFN | 3.1 |
| SDDFCTFQMVVEGGVCCTVTLNFN | 3.22 |
| SDDFCTFQMVLEGGVCCTVTLNDN | 2.19 |
| SDDFCTFQMVLEGGVCCTVTLNAN | 2.62 |
| SDDFCTFQMVLEIGVCCTVTLNFN | 2.35 |
| SDDFCTFQMVLEDGVCCTVTLNFN | 3.2 |
| SDDFCTFQMVLEVGVCCTVTLNFN | 2.5 |
| SDDFCTFQMVLEQGVCCTVTLNFN | 3.22 |
| SDDFCTFQMVLEAGVCCTVTLNFN | 3.65 |
| SDDFCTFQMVLERGVCCTVTLNFN | 3.71 |
| SDDFCTFQMVLEFGVCCTVTLNFN | 2.3 |

| Variant | protein stability index |
| --- | --- |
| SDDFCTFQMVLEMGVCCTVTLNFN | 2.94 |
| SDDFCTFQMVLENGVCCTVTLNFN | 2.32 |
| SDDFCTFQMVLEKGVCCTVTLNFN | 3.14 |
| SDDFCTFQMVLEEGVCCTVTLNFN | 2.48 |
| SDDFCTFQMVLEPGVCCTVTLNFN | 2.92 |
| SDDFCTFQMVLELGVCCTVTLNFN | 4.34 |
| SDDFCTFQMNLEGGVCCTVTLNFN | 1.83 |
| SDDFCTFQMFLEGGVCCTVTLNFN | 4.27 |
| SDDFCTFQMQLEGGVCCTVTLNFN | 1.29 |
| SDDFCTFQMCLEGGVCCTVTLNFN | 3.77 |
| SDDFCTFQMPLEGGVCCTVTLNFN | 2.35 |
| SDDFCTFQMWLEGGVCCTVTLNFN | 3.71 |
| SDDFCTFQMILEGGVCCTVTLNFN | 1 |
| SDDFCTFQMYLEGGVCCTVTLNFN | 1.13 |
| SDDFCTFQMDLEGGVCCTVTLNFN | 3.42 |
| SDDFCTFQMKLEGGVCCTVTLNFN | 2.56 |
| SDDFCTFQMALEGGVCCTVTLNFN | 2.91 |
| SDDFCTFQMHLEGGVCCTVTLNFN | 2.2 |
| SDDFCTFQMSLEGGVCCTVTLNFN | 2.04 |
| SDDFCTFQMLLEGGVCCTVTLNFN | 2.58 |
| SDDFCTFQMMLEGGVCCTVTLNFN | 1.84 |
| SDDFCTFQMTLEGGVCCTVTLNFN | 2.36 |
